Assay results taken from publication doi:10.1101/464495.

Tests used:
[1] = molecular target: Maltose binding protein (MBP) (UniProt P0AEX9 27-396); test: size-exclusion chromatography
MBP-IE86 full length = molecular target: T1, MBP-IE86 full length (human cytomegalovirus, UniProt P19893 1-580); test: size-exclusion chromatography
T1 sequence: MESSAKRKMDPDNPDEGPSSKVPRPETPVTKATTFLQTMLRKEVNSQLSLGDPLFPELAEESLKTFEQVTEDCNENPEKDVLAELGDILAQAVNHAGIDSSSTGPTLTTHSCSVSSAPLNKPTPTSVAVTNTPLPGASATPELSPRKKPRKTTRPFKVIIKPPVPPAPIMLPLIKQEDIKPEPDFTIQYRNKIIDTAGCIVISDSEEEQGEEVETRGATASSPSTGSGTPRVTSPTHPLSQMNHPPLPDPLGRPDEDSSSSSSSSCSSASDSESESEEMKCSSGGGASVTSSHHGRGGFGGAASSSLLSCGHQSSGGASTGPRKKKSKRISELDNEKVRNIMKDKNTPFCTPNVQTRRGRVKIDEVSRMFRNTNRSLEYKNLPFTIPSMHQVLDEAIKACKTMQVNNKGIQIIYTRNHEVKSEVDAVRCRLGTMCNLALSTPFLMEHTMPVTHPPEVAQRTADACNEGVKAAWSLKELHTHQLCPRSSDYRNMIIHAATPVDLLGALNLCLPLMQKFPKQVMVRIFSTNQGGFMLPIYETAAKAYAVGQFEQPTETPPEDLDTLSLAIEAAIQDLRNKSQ

B1: FDC (28bp, phosphorothioate) (dsDNA)
DNA 1: GACAGATCGTTTAGTGAACCGTACACGA
DNA 2: TCGTGTACGGTTCACTAAACGATCTGTC
modifications: four phosphorothioate bonds per strand (* in table)
B1: no binding [1]; binds (MBP-IE86 full length).
